Reference: patent US20250381223A1 (UTC THERAPEUTICS SHANGHAI, published 2025)
Values joined by “and” are separate entries in the source; they are usually repeats but may differ in a detail not shown here. Identical values can stand only once.

T1: CD123-Fc recombinant protein (human, UniProt P26951 19-305)
T1 construct: construct not described; not shown: Fc part
T1 sequence (looked up): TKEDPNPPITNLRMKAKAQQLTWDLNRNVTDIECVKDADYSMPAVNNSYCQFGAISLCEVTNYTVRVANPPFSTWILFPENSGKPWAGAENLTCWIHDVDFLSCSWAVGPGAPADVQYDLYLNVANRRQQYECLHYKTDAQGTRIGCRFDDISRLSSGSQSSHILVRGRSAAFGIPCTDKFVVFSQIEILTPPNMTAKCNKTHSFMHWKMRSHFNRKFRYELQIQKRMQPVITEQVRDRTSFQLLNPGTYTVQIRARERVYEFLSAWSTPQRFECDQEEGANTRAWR


Tests used:
[1] = target: T2, recombinant human CD40-His antigen protein (human, UniProt P25942 21-193); assay: ELISA; plate coated with CD40-His 2 µg/mL; IgG1, anti-human IgG-Fc (HRP)
T2 construct: Bought protein; also called recombinant CD40-His protein; CD40 antigen; not shown: His tag
Description: Therefore, the affinity of the CD40 antibody (in the form of a human classical monoclonal antibody IgG1) was detected by in vitro binding ELISA. The brief experimental procedures were as follows: [0569] (1) Construction of antibody expression plasmid: an antibody VH region was subcloned into a pEF vector containing a human CH1-Fc antibody fragment, and an antibody VL region was subcloned into a pEF vector containing a human CL antibody fragment. [0570] (2) Antibody expression: 33 μg of an antibody heavy chain expression plasmid and 67 μg of an antibody light chain expression plasmid were co-transfected into 293F suspension cells by PEI. After 4 days of culture, the supernatant was collected by centrifugation. [0571] (3) Antibody purification: the protein supernatant and protein A purification medium were incubated on ice for 2 h, and then the supernatant and the purification medium were separated by a gravity column. The purification medium was rinsed thoroughly with 100 mL of pre-cooled PBS to remove impure proteins, and finally, the target protein was eluted from the purification medium with 5-10 mL of 0.1 M Glycine-HCl (pH 2.7), and 1/10 volume of 1 M Tris-HCl (pH 9.0) was immediately added to neutralize the antibody. […] After the protein concentration was measured with A280, the antibody was packaged and cryopreserved at −80° C. […]

[2] = target: T1, CD123-Fc recombinant protein; assay: flow cytometry of T cells electroporated with CAR mRNA, stained with CD123-Fc + PE-anti-hIgG-Fc
Description: (§1) The CD123 CAR mRNAs obtained in Example 35 above were each introduced into T cells by electroporation according to the following procedures: T cells were collected, washed with the Opti-MEM medium, and resuspended at 1×10e⁷/mL with the Opti-MEM medium; 10 μg of RNA and 100 μL of T cells were aliquoted, mixed well, and electroporated under the following parameters (BTX machine): 500 V, 0.7 ms; the cells were then transferred to a pre-warmed medium and cultured at 37° C. The binding of CD123 CART cells to the CD123-Fc recombinant protein was detected by FACS staining. […] Empty vector (Mock) was a control T cell without CAR molecule. A549 tumor cells were electroporated with different amounts of CD123 mRNA. The electroporation procedure was the same as described above, and only the parameters were changed, with the parameters 300 V, 0.5 ms used. CD123 expression in A549 tumor cells was detected by FACS staining of isotype or anti-CD123 antibodies and A549 cells electroporated with different amounts of CD123 mRNA. […] The cytotoxicity of CD123 CART cells against tumor cells was detected in an in vitro cytotoxicity assay. Tumor cells expressing EGFP or EGFP-A549 cells electroporated with different amounts of tumor antigen were seeded at 3000 cells/100 μL/well into a flat-bottom 96-well plate; CART cells were diluted to a proper concentration and seeded to the 100 μL/well tumor cells according to different E/T ratios (e.g., 10:1, 3:1, or 1:1), and the co-culture plate was placed into the IncuCyte S3 machine and scanning parameters were set. After scanning for 3 days, the total green object integrated intensity (GCU×μm²/well) was analyzed to calculate the killing efficiency.

[3] = target: T1, CD123-Fc recombinant protein; assay: flow cytometry of T cells electroporated with CAR mRNA, stained with CD123-Fc + PE-anti-hIgG-Fc; Mock 1.68
Description: as §1

[4] = target: T3, CD40 (analyte of the SPR assay) (UniProt P25942 21-193); assay: SPR (Biacore 2000); antibody captured on protein A chip, CD40 3.125-100 nM; heterogeneous ligand model, KD1
T3 construct: Injected at 3.125-100 nM over captured antibody; also called CD40 antigen
Description: (§2) The experimental procedures were as follows: The binding affinities between the antibodies and the CD40 antigen were detected by SPR technique using Biacore 2000 (Cytiva, Sweden). All experiments were performed at 25° C. […] CD40 diluted in a 2-fold gradient (3.125-100 nM) was injected into the mobile phase. The association time was set at 90 s and the dissociation time at 300 s. The chip surface was regenerated by incubation with 10 mM Glycine-HCl (pH 1.5) for 30 s to remove the bound CD40 and antibody. The affinity of the antibody was simulated using a biphasic ligand model (heterogenerous ligand mode) in the build-in Biacore Evaluation software of the machine.

[5] = target: T3, CD40 (analyte of the SPR assay); assay: SPR (Biacore 2000); antibody captured on protein A chip, CD40 3.125-100 nM; heterogeneous ligand model, kd1
Description: (§3) The affinity kinetics of the affinity-matured antibodies were detected using surface plasmon resonance (SPR) technique.
as §2

[6] = target: T3, CD40 (analyte of the SPR assay); assay: SPR (Biacore 2000); antibody captured on protein A chip, CD40 3.125-100 nM; heterogeneous ligand model, KD2
Description: as §2

[7] = target: T3, CD40 (analyte of the SPR assay); assay: SPR (Biacore 2000); antibody captured on protein A chip, CD40 3.125-100 nM; heterogeneous ligand model, ka2
Description: as §3, §2

[8] = target: T3, CD40 (analyte of the SPR assay); assay: SPR (Biacore 2000); antibody captured on protein A chip, CD40 3.125-100 nM; heterogeneous ligand model, ka1
Description: as §2

[9] = target: T3, CD40 (analyte of the SPR assay); assay: SPR (Biacore 2000); antibody captured on protein A chip, CD40 3.125-100 nM; heterogeneous ligand model, kd2
Description: as §2

[10] = target: T2, recombinant human CD40-His antigen …; assay: ELISA; plate coated with CD40-His 2 µg/mL; HRP-anti-hFc
Description: The binding activities of the affinity-matured antibodies for antigen CD40 were detected by ELISA. The experimental procedures were as follows: [0637] 1. 50 μL of recombinant CD40-His protein at a concentration of 2 μg/mL was added to each well of an ELISA plate, and the plate was incubated at 4° C. overnight. […] 2. The next day, the ELISA plate was washed 3 times with PBST (containing 0.05% Tween-20). [0639] 3. 250 μL of 5% skim milk powder (dissolved in PBS) was added to each well of the ELISA plate, and the plate was incubated at room temperature for 2 h. [0640] 4. The plate was washed 3 times with PBST, antibodies with different dilution ratios were added to the ELISA plate at 50 μL/well, and the plate was incubated at room temperature for 60 min. [0641] 5. The plate was washed 3 times with PBST, 50 μL of HRP-anti-hFc antibody was added to each well, and the plate was incubated at room temperature for 60 min. [0642] 6. The plate was washed 3 times with PBST, 50 μL of TMB was added to each well, and after color development at room temperature, 50 μL of 2 M HCl was added to each well to stop the reaction. The plate was read at 450 nm.

[11] = target: T1, CD123-Fc recombinant protein; assay: flow cytometry of T cells electroporated with CAR mRNA, stained with CD123-Fc + PE-anti-hIgG-Fc; Mock 0.36
Description: as §1

Row | Binder | EC50 [1] | binding result [2] | Kd [4] [nM] | koff [5] [s⁻¹] | Kd [6] [nM] | kon [7] [M⁻¹ s⁻¹] | kon [8] [M⁻¹ s⁻¹] | koff [9] [s⁻¹] | EC50 [10] [µg/mL] | percent of cells in the CD123-Fc positive gate [11] [%] | further results
1 | F2.103 (antibody, V domains shown) VH: EVQLVESGGGLVQPGGSLRLSCAVSGFTFSTYWMHWVRQAPGKGLVWVSRINSDGSSTTYADSVKGRFTISRDNAKNTLYLQMNSLRAEDTAVYYCARDRVLWIGELSYYGMDVWGQGTTVTVSS VL: DIQMTQSPSTLSASVGDRVTITCRASQSISNWLAWYQQKPGKAPKLLLYKASGLESGVPSRFSGSGSGTEFTLTINSLQPDDFATYYCQQSNSYSWTFGHGTKVEIKR | 0.0448 µg/mL and 305 nM | – | – | – | – | – | – | – | – | – | –
2 | C12 (scFv, also called anti-CD123 scFv-C12) scFv: QSVLTQPPSVSAAPGQKVTISCSGSSSNIGNNYVSWYQQLPGTAPKLLIFDDNKRPSGIPDRFSGSLSGTSASLAISGLQSEDDADYYCSAWDDSLSGYVFGTGTKLTVLGGGGSGGGGSGGGGSQVQLVQSGGGLVKPGGSLRLSCAASGFTFSSYNINWVRQAPGKGPEWVSSISSSSSYRYYADSVKGRFTISRDNAKNSLYLQMNSLRAEDTAVYYCVRDKTGGYGTAFDYWGQGTLVTVSS | – | no binding | – | – | – | – | – | – | – | – | percent of cells in the CD123-Fc positive gate [3]: 1.37%
3 | 40.52 (antibody, V domains shown, Tested as human IgG1 (VH on human CH1-Fc, VL on human CL)) VH: QVQLVQSGAEVKKPGSSVKVSCKASGGTFSSYAISWVRQAPGQGLEWMGMINPSGGTTSYAQKFQGRVTMTRDTSTSTVYMELSSLRPEDTAVYYCARGFRMDQWGQGTLVTVSS VL: QSALTQPPSASGSPGQSVTISCTGTSSDVGAYNFVSWYQQHPGNAPKLIIYDVRKRPSGIPDRFSASKSGNTASLTVSGLQADDEADYYCSSYAGNNNLVFGGGTKLTVL | 0.0492 µg/mL and 344 nM | – | 0.864 | 0.00115 | 103 | 861000 | 1.34e+06 | 0.0885 | 0.0975 | – | –
4 | 4052.17 (antibody, V domains shown) VH: QVQLVQSGAEVKKPGSSVKVSCKASGGTFSSYAISWVRQAPGQGLEWMGMINPSGGTTSYAQKFQGRVTMTRDTSTSTVYMELSSLRPEDTAVYYCARGFRMDQWGQGTLVTVSS VL: QSALTQPPSASGSPGQSVTISCTGTSSDVGAYNFVSWYQQHPGNAPKLIIYDVRKRPSGIPDRFSASKSGNTASLTVSGLQADDEADYYCSSYAGNNEMVFGGGTKLTVL | – | – | 0.686 | 0.00102 | 48.4 | 748000 | 1.49e+06 | 0.0362 | 0.0944 | – | –

More lines, main results first:

Row | EC50 [1] | binding result [2] | Kd [4] [nM] | koff [5] [s⁻¹] | Kd [6] [nM] | kon [7] [M⁻¹ s⁻¹] | kon [8] [M⁻¹ s⁻¹] | koff [9] [s⁻¹] | EC50 [10] [µg/mL] | percent of cells in the CD123-Fc positive gate [11] [%] | Binder | further results
5 | – | no binding | – | – | – | – | – | – | – | 0.53 | C22 (scFv, also called anti-CD123 scFv-C22) scFv: SYELTQPPSVSVAPGKTARITCGANNIETKSVHWYRQRPGQAPILVIYYDSDRPSGIPERFSGSTSGDTATLTISRVEAEDEADYYCQVWDSTSDHVVFGEGTKLTVLGGGGSGGGGSGGGGSEVQLVESGAEVKKPGESLKISCKGSGYSFTSYWIGWVRQMPGKGLEWMGIINPSGGSTSYAQKFQGRVTMTRDTSTSTVYMELSSLRSEDTAVYYCARVVTPYYPLTNWGQGTLVTVSS | –
6 | – | no binding | – | – | – | – | – | – | – | 0.64 | C31 (scFv, also called anti-CD123 scFv-C31) scFv: QPVLTQPPSMSGTPGQRVTISCSGGNSNIGDNSVSWYQQLPGTAPKLLIYNNNQRPLGVPDRFSGSKSGTSASLAIRGLQSEDEAHYYCSSWDDSLEGAQFGGGTKVTVLGGGGSGGGGSGGGGSEVQLVESGGGLVKPGGSLRLSCAASGFTFSDYYMSWIRQAPGKGLEWVSYISSSGSTIYYADSVKGRFTISRDNAKNSLYLQMNSLRAEDTAVYYCARGHQYYDFWSGYSNWFDPWGQGTLVTVSS | –
